Experiment [1] addresses T1, LGALS-11 isoform 1 (galectin-11) (Ovis aries, UniProt A0A0A7EMW6).
T1 construct: gene LGALS15; recombinant, modified pET-28, E. coli BL21(DE3); alignment over 137 residues; homotetramer; natural variant with L9 and D124
T1 sequence (A0A0A7EMW6 1-137): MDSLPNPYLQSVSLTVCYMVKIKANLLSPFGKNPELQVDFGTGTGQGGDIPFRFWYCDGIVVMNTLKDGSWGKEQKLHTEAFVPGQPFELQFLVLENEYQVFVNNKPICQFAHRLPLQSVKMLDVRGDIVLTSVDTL
Nature of the experiment: X-ray crystallography. It counts as binding. To be noted: 2.40 Å complex structure; carbohydrate recognition domain (R53, N64, E74 hydrogen bonds; V62, W71 contacts).

Experiment [2] has as its target galectin-11 (LGALS-11) isoform 1 of sheep (Ovis aries) (sheep (Ovis aries)). Description: AUC; sedimentation velocity, c(s) analysis with SEDFIT; 0.10, 0.30 and 0.90 mg/ml; 20 mM Tris-HCl pH 8.0, 100 mM NaCl, 0.5 mM TCEP; 20 °C; absorbance at 280 nm.
Experiment [3] shares this target.
Experiment [4] addresses galectin-11 (LGALS-11) isoform 2 of sheep (Ovis aries) (sheep (Ovis aries)). Nature of the experiment: AUC; sedimentation velocity, c(s) analysis with SEDFIT; 0.10, 0.30 and 0.90 mg/ml; 20 mM Tris-HCl pH 8.0, 100 mM NaCl, 0.5 mM TCEP; 20 °C; absorbance at 280 nm.
Experiment [5] has the same target.

Consider 3 molecules from publication PMC7442640, “The oligomeric assembly of galectin-11 is critical for anti-parasitic activity in sheep (Ovis aries)” (Communications Biology, 2020).

Take `OC[C@H]1O[C@@H](O)[C@H](O)[C@@H](O)[C@H]1O` [β-D-galactose]: the X-ray crystallography entry in experiment [1] is on record as “This galactose bound directly to the residues present in the four adjacent strands”.

The molecule “galectin-11 (LGALS-11) isoform 1 of sheep (Ovis aries) (natural protein)” had a stoichiometry N in experiment [2] of 4. In experiment [3], the L4s of H. contortus with cuticular damage, shrunken soma and internal granules after 72 h with isoform 1 was greater than 95%; the xL3s of H. contortus that did not develop to L4s when exposed to isoform 1 (1.0 mg/ml) is 85%.

Regarding “galectin-11 (LGALS-11) isoform 2 of sheep (Ovis aries) (natural protein)”, the stoichiometry N in experiment [4] was determined as 2. For the same molecule, in experiment [5], the L4s of H. contortus with internal or cuticular damage after 72 h with isoform 2 was less than 10%.
